In patent US20020155577A1 (AVENTIS PHARMA S A, published 2002):

Target: T1, PAP1 (Parkin Associated Protein 1) fragment encoded by the insert of library plasmid pGAD-Ly111b, fused to … (human, UniProt Q4VX76 267-610)
T1 construct: Prey of the yeast two-hybrid test; It is a partial PAP1 clone from a human peripheral lymphocyte cDNA library; Any linker between GAL4 and the insert is not described; also called fragment of PAP1; plasmid isolated during the screening of the two-hybrid library
T1 sequence: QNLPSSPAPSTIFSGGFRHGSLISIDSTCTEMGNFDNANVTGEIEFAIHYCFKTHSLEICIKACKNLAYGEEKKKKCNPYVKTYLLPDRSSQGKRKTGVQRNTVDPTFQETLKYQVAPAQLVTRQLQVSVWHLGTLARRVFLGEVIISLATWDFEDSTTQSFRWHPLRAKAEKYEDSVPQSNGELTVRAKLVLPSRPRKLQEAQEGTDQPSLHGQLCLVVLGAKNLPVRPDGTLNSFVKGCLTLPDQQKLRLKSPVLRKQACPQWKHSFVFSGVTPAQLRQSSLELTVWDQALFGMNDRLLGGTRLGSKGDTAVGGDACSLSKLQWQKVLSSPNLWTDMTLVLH
Test: yeast two-hybrid in strain L40, beta-Gal activity assay
Protocol: A sheet of nitrocellulose is preplaced on the Petri dish containing the yeast clones, which are separated from each other. This sheet is then immersed in liquid nitrogen for 30 seconds, in order to rupture the yeasts and thus to release the β-galactosidase activity. After thawing, the sheet of nitrocellulose is placed, colonies facing upwards, in another Petri dish containing a Whatman paper which has been presoaked in 1.5 ml of PBS solution (60 mM Na₂HPO₄, 40 mM NaH₂PO₄, 10 mM KCl, 1 mM MgSO₄, pH 7) containing 15 μl of X-Gal (5-bromo-4-chloro-3-indoyl-β-D-galactoside) at 40 mg/ml of N,N-dimethylformamide. The dish is then placed in an incubator at 37° C. The assay is termed positive when the colonies on the membrane turn blue after 12 hours.
To determine the specificity of interaction between the fragment corresponding to the PAP1 protein and the central region of parkin, a two-hybrid test for specific interaction with other nonrelevant proteins was carried out. To carry out this test, we transformed strain L40 with the control plasmids plex9-cAPP or pLex9-HaRasVal12, in place of the plasmid pLex9-parkin (135-290), which respectively encode the cytoplasmic domain of the APP or the HaRasVal12 protein, which are fused to the LexA DNA binding domain, and with the plasmid isolated during the screening of the two-hybrid library. […]

- binding result: binds
B1: central region of parkin (amino acids 135-290) fused to the LexA bacterial repressor, from vector pLex9-parkin (135-290) (other)
chain: GSPAGRSIYNSFYVYCKGPCQRVQPGKLRVQCSTCRQATLTLTQGPSCWDDVLIPNRMSGECQSPHCPGTSAEFFFKCGAHPTSDKETSVALHLIATNSRNITCITCTDVRSPVLVFQCNSRHVICLDCFHLYCVTRLNDRQFVHDPQLGYSLPCV
notes: also called central portion of parkin; not shown: LexA bacterial repressor as encoded by vector pLex9 (pBTM116)
